US5180678A, “Uses of substantially pure interleukin-9 receptor” (Ludwig Institute for Cancer Research, priority 1992, dated 1993)

Assays:
IL-9R [1] = biological target: T1, IL-9R (Mus musculus, UniProt Q01114); assay: IL-9 binding to resting and activated T helper clones; design: endogenous in cells; details: 7.5×10^-10 M labelled rIL-9
T1 sequence (Q01114 38-468): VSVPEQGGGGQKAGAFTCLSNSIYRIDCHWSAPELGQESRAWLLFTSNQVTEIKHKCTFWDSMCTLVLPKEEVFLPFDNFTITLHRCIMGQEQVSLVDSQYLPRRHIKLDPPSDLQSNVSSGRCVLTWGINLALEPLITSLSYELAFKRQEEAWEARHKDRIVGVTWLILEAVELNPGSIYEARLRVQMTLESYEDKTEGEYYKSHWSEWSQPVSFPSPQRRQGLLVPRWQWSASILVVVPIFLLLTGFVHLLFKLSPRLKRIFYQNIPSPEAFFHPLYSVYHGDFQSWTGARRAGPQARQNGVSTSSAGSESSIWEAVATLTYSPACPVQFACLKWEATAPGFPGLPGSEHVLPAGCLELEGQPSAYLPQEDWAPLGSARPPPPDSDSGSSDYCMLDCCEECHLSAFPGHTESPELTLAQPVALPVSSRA
Method: (§1) The correlation between IL-9 and proliferation of T4 cell lines in response to IL-9 was studied. Resting T cells were collected from two week cultures, and 2×10^6 cells were stimulated by antigen (KLH, 25 ug/ml) in the presence of 70×10^6 & spleen cells for four days. Blasts were isolated by centrifugation and IL-9 binding was determined following incubation with 7.5×10^-10 M labelled rIL-9. Resting cells which had not been restimulated were treated in parallel. Maximal IL-9 induced proliferation was measured by incubation of resting cells in microliter plates (50,000/well), either with or without saturating concentrations of IL-9. Radioactive thymidine incorporation, which was the manner in which proliferation was determined, was measured on day 3.

T helper clone TUC7.11 = assay: IL-9 induced proliferation, thymidine incorporation; format: cell-based; details: resting TUC7.11 cells, saturating IL-9, thymidine incorporation day 3
Method: as §1

T helper clone TUC7.33 = assay: as above; format: cell-based; details: resting TUC7.33 cells, saturating IL-9, thymidine incorporation day 3
Method: as §1

T helper clone TUC2.15 = assay: as above; format: cell-based; details: resting TUC2.15 cells, saturating IL-9, thymidine incorporation day 3
Method: as §1

T helper clone TUC7.51 = assay: as above; format: cell-based; details: resting TUC7.51 cells, saturating IL-9, thymidine incorporation day 3
Method: as §1

IL-9R [2] = biological target: T1, IL-9R; assay: Cellular distribution of IL-9R: specific binding of 125I-labeled IL-9 to cell types; design: a number of different cell types were tested for the presence of the IL-9R molecule; endogenous in cells
Method: The molecular nature of the IL-9R was studied via affinity cross linking experiments. In these, 5×10^6 cells (TS1)/ml were incubated for three hours at 4° C. in 140 ul of binding medium, either with 1.3×10^-10 M of labeled rIL-9, or the labeled cytokine mixed with 3.1×10^-8 M of the unlabeled material. After two washes with 1 ml of cold, phosphate buffered saline (PBS) at pH 7.4, cells were resuspended in 2.25 ml of cold PBS (pH 8.4), containing 1 mM MgCl2. Disuccinimidyl suberate, solubilized in dimethylsulfoxide, was added at a final concentration of 10 ug/ml. This cross links the cytokine to the cell. […] After a 30 minute incubation on ice, the reaction was quenched by adding 2.5 ml of cold 10 mM TRIS-HCl (pH 7.4) and 1 mM EDTA. The cells were centrifuged and the resulting pellet was resuspended in 50 ul of cold lysis buffer (Tris-HCl 126 mM, pH 7.5 containing 0.7% Triton-X100, 2 mM phenylmethylsulfonyl fluoride (PMSF)), 10 mM EDTA, 10 mM 2-mercaptoethanol, and, in some cases 0.2 mM pepstatin, 2 mM O-phenanthrolin and 0.1 mM leupeptin were included. […] Following extraction, the detergent mixture was incubated for 30 minutes on ice, with insoluble material being removed by centrifuging for 15 minutes at 10,000 rpm. Supernatant was boiled for 90 seconds in the presence of 3 mg/ml of SDS, and was diluted twice with lysis buffer.
Following the protocols of Example 5, a number of different cell types were tested for the presence of the IL-9R molecule.
±Cells were incubated with ^125 Ilabeled IL9.

- IL-9 binding Activated Cells (IL-9R [1]; T helper clone TUC2.15, antigen (KLH) stimulated blasts): 532 mol/cell
- IL-9 binding Resting Cells (IL-9R [1]; T helper clone TUC2.15): 159 mol/cell
- IL-9 binding Resting Cells (IL-9R [1]; T helper clone TUC7.11): < 10 mol/cell
- IL-9 binding Activated Cells (IL-9R [1]; T helper clone TUC7.33, antigen (KLH) stimulated blasts): < 10 mol/cell
- IL-9 binding Resting Cells (IL-9R [1]; T helper clone TUC7.33): 21 mol/cell
- IL-9 binding Activated Cells (IL-9R [1]; T helper clone TUC7.51, antigen (KLH) stimulated blasts): 514 mol/cell
- IL-9 binding Resting Cells (IL-9R [1]; T helper clone TUC7.51): 94 mol/cell
- Specific Binding (IL-9R [2]; Factor-dependent T cells ST2K9.4A2, 125I-labeled IL-9 4.1 × 10^-10 M): 1415 mol/cell
- Specific Binding (IL-9R [2]; Factor-dependent T cells TS1, 125I-labeled IL-9 5.6 × 10^-10 M): 2235 mol/cell
- Specific Binding (IL-9R [2]; Factor-dependent T cells TUC.51S1, 125I-labeled IL-9 1.3 × 10^-10 M): 663 mol/cell
- Specific Binding (IL-9R [2]; Lymphoma LBRM-33-1A5, 125I-labeled IL-9 5.6 × 10^-10 M): 599 mol/cell
- Specific Binding (IL-9R [2]; Macrophages Bone marrow derived, 125I-labeled IL-9 4.1 × 10^-10 M): 195 mol/cell
- Specific Binding (IL-9R [2]; Macrophages P399D1, 125I-labeled IL-9 6.2 × 10^-11 M): 16 mol/cell
- Specific Binding (IL-9R [2]; Macrophages PU5-1,8, 125I-labeled IL-9 1.3 × 10^-10 M): 229 mol/cell
- Specific Binding (IL-9R [2]; Mast cell line L138.C, 125I-labeled IL-9 4.1 × 10^-10 M): 331 mol/cell
- Specific Binding (IL-9R [2]; Mast cell line L138.8A, 125I-labeled IL-9 4.1 × 10^-10 M): 2208 mol/cell
- Specific Binding (IL-9R [2]; Myeloid Cell Line DA-1, 125I-labeled IL-9 3.2 × 10^-10 M): 18 mol/cell
- Specific Binding (IL-9R [2]; T-cell leukemia TH1, 125I-labeled IL-9 5.6 × 10^-10 M): 273 mol/cell
- Specific Binding (IL-9R [2]; Thymoma BW5147, 125I-labeled IL-9 6.2 × 10^-10 M): 120 mol/cell
- Specific Binding (IL-9R [2]; Thymoma EL4.16, 125I-labeled IL-9 7.5 × 10^-10 M): 263 mol/cell
Substance: IL-9: lymphokine interleukin-9, T-cell derived growth factor; in Tables II and III the 125I-labelled recombinant form is used
- IL-9 induced proliferation Stimulatin Index (T helper clone TUC7.11): 1.1
- IL-9 induced proliferation Stimulatin Index (T helper clone TUC7.33): 0.8
- IL-9 induced proliferation Stimulatin Index (T helper clone TUC2.15): 11.2
- IL-9 induced proliferation Stimulatin Index (T helper clone TUC7.51): 23.8
- Specific Binding (IL-9R [2]; B lymphocytes LPS-blasts, 125I-labeled IL-9 3.2 × 10^-10 M): -- (below detection limit (<10 mol/cell))
- Specific Binding (IL-9R [2]; B lymphocytes unstimulated, 125I-labeled IL-9 3.2 × 10^-10 M): -- (below detection limit (<10 mol/cell))
- Specific Binding (IL-9R [2]; B-cell hybridoma 7TD1, 125I-labeled IL-9 3.2 × 10^-10 M): -- (below detection limit (<10 mol/cell))
- Specific Binding (IL-9R [2]; CTL clone CTL P1:5, 125I-labeled IL-9 1.6 × 10^-10 M): -- (below detection limit (<10 mol/cell))
- Specific Binding (IL-9R [2]; CTL clone CTL P1:204, 125I-labeled IL-9 6.2 × 10^-11 M): -- (below detection limit (<10 mol/cell))
- Specific Binding (IL-9R [2]; CTL clone CTL P35:10, 125I-labeled IL-9 3.3 × 10^-10 M): -- (below detection limit (<10 mol/cell))
- Specific Binding (IL-9R [2]; CTL clone CTL P35:48, 125I-labeled IL-9 1.3 × 10^-10 M): -- (below detection limit (<10 mol/cell))
- Specific Binding (IL-9R [2]; CTL clone CTL P91:6, 125I-labeled IL-9 1.3 × 10^-10 M): -- (below detection limit (<10 mol/cell))
- Specific Binding (IL-9R [2]; Carcinoa 3LL (Lewis Lung), 125I-labeled IL-9 6.2 × 10^-11 M): -- (below detection limit (<10 mol/cell))
- Specific Binding (IL-9R [2]; Fibroblasts A-9, 125I-labeled IL-9 6.2 × 10^-11 M): -- (below detection limit (<10 mol/cell))
- Specific Binding (IL-9R [2]; Fibrosarcoma MethA, 125I-labeled IL-9 6.2 × 10^-11 M): -- (below detection limit (<10 mol/cell))
- Specific Binding (IL-9R [2]; KLH-primed lymph nodes (C57B/6 mice), 125I-labeled IL-9 6.2 × 10^-10 M): -- (below detection limit (<10 mol/cell))
- Specific Binding (IL-9R [2]; Myeloid Cell Line Ea3,15, 125I-labeled IL-9 5.6 × 10^-10 M): -- (below detection limit (<10 mol/cell))
- Specific Binding (IL-9R [2]; Myeloid Cell Line FDC-P1, 125I-labeled IL-9 5.6 × 10^-10 M): -- (below detection limit (<10 mol/cell))
- Specific Binding (IL-9R [2]; Myelomonocytic leukemia WEHI.3B, 125I-labeled IL-9 7.5 × 10^-10 M): -- (below detection limit (<10 mol/cell))
- Specific Binding (IL-9R [2]; Normal lymph nodes, 125I-labeled IL-9 6.2 × 10^-10 M): -- (below detection limit (<10 mol/cell))
- Specific Binding (IL-9R [2]; Plasmacytoma TEPC1033C, 125I-labeled IL-9 3.2 × 10^-10 M): -- (below detection limit (<10 mol/cell))
- Specific Binding (IL-9R [2]; Spleen Cells, 125I-labeled IL-9 3.2 × 10^-10 M): -- (below detection limit (<10 mol/cell))
- Specific Binding (IL-9R [2]; T lymphocytes ConA-blasts, 125I-labeled IL-9 3.2 × 10^-10 M): -- (below detection limit (<10 mol/cell))
- Specific Binding (IL-9R [2]; T lymphocytes unstimulated, 125I-labeled IL-9 3.2 × 10^-10 M): -- (below detection limit (<10 mol/cell))
- Specific Binding (IL-9R [2]; T-cell leukemia L1210, 125I-labeled IL-9 5.6 × 10^-10 M): -- (below detection limit (<10 mol/cell))
- Specific Binding (IL-9R [2]; T-cell leukemia LEB, 125I-labeled IL-9 6.2 × 10^-11 M): -- (below detection limit (<10 mol/cell))
- Specific Binding (IL-9R [2]; Thymocytes, 125I-labeled IL-9 3.2 × 10^-10 M): -- (below detection limit (<10 mol/cell))
